Data published in a protein production outcome set (Wang et al. 2014).

test: label from the status in PepcDB records

| Sequence | protein production |
| --- | --- |
| MKESSTLLQNLARSLPRLNMGILLGLALLLFATLYWTLERLFDEQNSNVRLHFAQLMENIQEQELFLKRLAARHSIDALSLDAPHHLNLQAFPPTAGQQSPFATPFSLSLSPQQPAAGELPRVFALGLQLSSFYSAFWSGSQHVAPRTFVFKTFGHFDISHPEGNTAPDIGVADQVLHQQLVKSDGFADHQIHWQQYRPPASEALPTRFLAYINLHEPAPPLDVQGGNDWSVVASLLSLDDLNHLEHTRHWSIYDDFTLIEPSGTALTGDPAPADVLGEGLNFGLQGMIVKVTSQTPQLWTGLYAISYRNYLDYALWAMLSLLALGVGSIACGWAASRWYRNKVVVPAQRAQQCLNESEDFNRVVIDTVPSGLCVVSRDNLQVILQNRQAEQWQGTAQLLSRLAQDRSLIDGGETSLDIDGRYLQVEFVSTRYQRQDVLVCTFNDVTRHVEDARALDRARRSADAANAAKTLFLATMSHEIRTPLYGVLGTLELLGLTRLDSRQSDYLQTIQRSSSTLFQLISDVLDVSRIEAGQMSIDPLEFCPLDMLEDVLHAHAASAQRRGLLFYACIDPNLPDLLLGDAARISQILNNLLSNAIKFTESGRVVLRVRLLELRDQQARIEWQVTDTGIGISAQQQPQLFVPFFQVRDASNEAGAGLGLAICERLCQMMGGQMQVTSEPGLGSSFSLRLTLRCLPGGLPPLLPWPEGSPVYVRAPVPELLKNTCDWLGRLGVPAHPPPPGWSDEPQTGVLIDMLPRDGLASWPGPCVSAVSGGGSGRLPQATSWQVDAHDIRAIAQAAVLAHQGLPLYQAQHRAGRMGQLNLRILVAKHSPINQAIIKEQLQALGCQVTLSANGKQALEHWQPQRFDIVITDVNMPLMNGYELARELRRRDPQLPIIGVTANALREEGIRCLAAGMNTWIVKPMNLQTLRGHLSKLCPTSTATAAPSIPPAAPSRPPPDTAQGDRIQVTEKMRPLFLSTMHEDLRRLAEALDSGAGKIAAARLHSIAGAMGAVQAAPLAKACAELECRLLEGALTADLQAQARQLMQRLSRLLLPLE | failed |
| MKETTIYGRLVMAVKNTAQVVIGGKIITLGGYESEEYFQKVASYINNKIAELSEMPGYTRQPVETKHTLLSLNVTDDYFKAKKQAEIFEQDLQQKDQEMYELKHELIALRMKIEETEKNAQEAQQQKELLEGKVKELNDEIDKLLK | not failed |
| MKEVIHSTLAPKAIGPYSQAIATNDLVFVSGQLGIDVSTGEFKGADIHSQTTQSMENIKAILKEAGLGMDSVVKTTILLKSLDDFAVVNGIYGSYFTEPYPARATFQVAKLPKDALVEIEAIAIK | failed |
| MKFAIITDVHGNFDALQTVLDDIDNREDIDKIYNLGDNIGIGHETNKVLDTIFDRDDMEIIAGNHDEAVMSLVNNTPYPEDLKDKFYEHHQWIESHMDEDYYDQLNLLPRYIEKTICGKKLLFIHYEIENQKLETGIEGQPFSPITENSKENIIELFKDKDADLIAFGHNHQMHLYDDNKTIYFNPGAVGLNNGANAVYGIVTINDNEFSIERIKLPYDNEEYLQGFDEKQVPAKQLIFEHFL | failed |
| MKFCSQCGGEVILRIPEGDTLPRYICPKCHTIHYQNPKVIVGCIPEWENKVLLCKRAIAPYRGKWTLPAGFMENNETLVQGAARETLEEANARVEIRELYAVYSLPHISQVYMLFRAKLLDLDFFPGIESLEVRLFGEQEIPWNDIAFRVIHDPLKRYMEERHHGQPAFHLGIINKPQAGSNSNE | not failed |
| MKFFSLADEAEFKSIIISKNKAVDVIGSKLGGQVVSFSDEWFASAENLIQPTAPIRDPTRFVHSGAWYDGWETRRHNEMEYDWVIIKMGVAAAHIIGGEIDTAFFNGNHAPFVSIEALYDEGEEGNIVEDDSRWVEIVEKFECGPSQRHLFVRGNGLTKERFTHIKLKMYPDGGIARFRLYGRVVPPELKTKDHIIDLAYVCNGAVALKYSDQHFGSVDNLLLPGRGHDMSDGWETKRSRQPGHTDWAVIQLGRESSFIEKIIVDTAHFRGNFPQFITVEGCLKESESSENTGEGTWVELVGKSKTGPDKEHVYEIRKSIRVSHVKLTIIPDGGVKRIRVWGY | not failed |
| MKFGEHLSKSLIRQYSYYYISYDDLKTELEDNLSKNNGQWTQELETDFLESLEIELDKVYTFCKVKHSEVFRRVKEVQEQVQHTVRLLDSNNPPTQLDFEILEEELSDIIADVHDLAKFSRLNYTGFQKIIKKHDKKTGFILKPVFQVRLDSKPFFKENYDELVVKISQLYDIARTSGRPIKGDSSAGGKQQNFVRQTTKYWVHPDNITELKLIILKHLPVLVFNTNKEFEREDSAITSIYFDNENLDLYYGRLRKDEGAEAHRLRWYGGMSTDTIFVERKTHREDWTGEKSVKARFALKERHVNDFLKGKYTVDQVFAKMRKEGKKPMNEIENLEALASEIQYVMLKKKLRPVVRSFYNRTAFQLPGDARVRISLDTELTMVREDNFDGVDRTHKNWRRTDIGVDWPFKQLDDKDICRFPYAVLEVKLQTQLGQEPPEWVRELVGSHLVEPVPKFSKFIHGVATLLNDKVDSIPFWLPQMDVDIRKPPLPTNIEITRPGRSDNEDNDFDEDDEDDAALVAAMTNAPGNSLDIEESVGYGATSAPTSNTNHVVESANAAYYQRKIRNAENPISKKYYEIVAFFDHYFNGDQISKIPKGTTFDTQIRAPPGKTICVPVRVEPKVYFATERTYLSWLSISILLGGVSTTLLTYGSPTAMIGSIGFFITSLAVLIRTVMVYAKRVVNIRLKRAVDYEDKIGPGMVSVFLILSILFSFFCNLVAK | failed |
| MKFLKYFTFELRLRYRNPSQILFVFIFPLFLMFAFSSSFGKSIPHYIENNIASILLYSVLSASLTSLSVQIADHQSGKIYQLFVQRGIKKLFYIIAQIVSFMIIIFCSTLVILVVAHYAYDYEFPKLSLLILFYLKLYLYSIPFCLLAMIIGLLAKNTATASAIAMPLMFLSFFFSGMMIPLAQLSGGIRKIADNFFLTQLLSDLNHTLTSNYTVVPNWSRISLSVGLICLLALLVYRRKA | failed |
| MKFLRLLKHPASTAPGRAFQLYPWQERIVRAIYGPRHPDGSRIVKTVFLLVPRGNRKTSLAAALALLHTLGPERVPAGQVIFAACDREQAGIGFREAANIIRADKRLVAATRIYDAHNSAKKIVFRAEDVTLSAISSDGGAQHGRTPAFTLIDELHAWKGRDLWEALKSGTAKVADSLTVIATTAGRGADTVAAEQYAYALAVARGEIVNPAFLPILFAPEPGDDWTDEATWHKVNPGLRHGFPSLEGLRTLAKEAEGRPSDAYAFRQFNLNEWMANSRDPLFDFDTYDARRFAEDLDELEGLPCWIGVDLSISGDLSAVVAAWKHPDGQISVKPWFWVPGDDLKVRADRDGVPYERWRDEGHLIATPGAIIDQSAVADQIRELCARFDAQEVAFDPHLARPMMQSLYDEGLPVVEMRQAPLTMGVAAGDLERVVNGRLIRHDGHPVLRNHLQNVCASRSESGLIRMHKVQRTSRIDGAVAAAMAVSRAVAADSRKSAYSDPEAEGLFVF | failed |
| MKFNEFLNNLSNYEPGKDIEVIAKEYGVKEVIKLASNENPFGTPPKAIECLRQNANKAHLYPDDSMIELKSTLAQKYKVQNENIIIGAGSDQVIEFAIHSKLNSKNAFLQAGVTFAMYEIYAKQCGAKCYKTQSITHNLDEFKKLYETHKDEIKLIFLCLPNNPLGECLDASEATEFIKGVNEDCLVVIDAAYNEFASFKDSKKHLEPCELIKEFDNVLYLGTFSKLYGLGGLRIGYGIANANIISAFYKLRAPFNVSNLALKAAVAAMDDDEFTEKTLENNFSQMELYKEFAKKHNIKIIDSYTNFITYFFDEKNSTDLSEKLLKKGIIIRNLKSYGLNAIRITIGTSYENEKFFTEFDKILR | not failed |
| MKFQPLGERVLVERLEEENKTSSGIIIPDNAKEKPLMGVVKAVSHKISEGCKCVKEGDVIAFGKYKGAEIVLDGTEYMVLELEDILGIVGSGSCCHTGNHDHKHAKEHEACCHDHKKH | failed |
| MKFRIDTFTLLLLGAIVLASFLPVTGQAAEALGTAGTIAVALLFFFHGAALSRQQIIDGATHWRLHILITALTFVFFPLAVLPVNELNTIAPEWMPKDLGLGFLYLGVLPSAVSSSIAYTAMARGNVPAAICSAAASNVFGMMLTPFLLLLLVSTSGAGEFSVAEALKDIVLQLLLPFAVGHALRPWLGGYLSRNESLMARYDQCVIWIIVYSAFSHSVVSGLWQNLPVQAIVLAILICFGLLGLFMLIARLMVRKLGFSLEDEAAVVFCGSKKSLASGLPMAKVLFSGHPGFGMIVLPIMCYNQIQVIVGAILAQKYREKIQQAKSAPAHASENGCQNR | failed |
| MKFSRFRDSKLFFWTIEILAVVAILFVLLQMKYIFSPIGIIVSTLFMPILVAGFLFYLFNPLVLFLEKRKVPRLLSVIVIFIAFITLVVLAVMQLGPTLADQVAELAKAIPGYWQDFEKWLQGLSNNSALKDIDMKQELEKLNISLPKIMSVVVDGVASSFGAIVSFVSSFVMILVTVPFIVFYMFKDGHKFVESSGKFFPAGIRSEAKQIIKEMNKTISTYISSQAIDCMFVGLFTFIGYLIIGQPYALLFGFIAGATNIIPYLGPFIGAAPAVIVALFTSPVQALLVIVVVTIVQQIDSNLLSPYIMGKSLSIHPLTIIIILIVAGNLAGIFGMILGVPLYAVVKTIIVNVNRLIKLRRGQLAIDNNLPNPDTPKK | not failed |
| MKFVKIALIIAVIALVLFAAKQTGVLEIITDIKSLQEWIAGFGAWGYIVFVAAFVFACVFLLPGSAFTIVAGIVFGPIKGGVLALFSATLGAVVAFIVARFLLRNTIMKKFGDNPIFKKIDDGVAKNGTSFLILTRLVPVFPFSLQNYAYGLTGLNLSTYALVSLITMAPGAFIFAYMAGDIATNGVSAMLLVKFAVAGLILFGMSLIPKYIAKKKGINMEELAK | not failed |
| MKFVSIEKDEILIGNMAKLYCKVFEKTNFNEMIERMNRHIEYTGFKGIVAINDENEVVGFTYGYRSMEGQYYNQLMREALHLEQVDEWLQDCFEFVELAVHPQYQNEGLGTKLHNELLEGIPNRTSVLTTQINNEKARSLYERLDWVNVLEPFHPSKNDVPYVIMGKALKTKVN | failed |
| MKFYIDDLPVLFPYPKIYPEQYNYMCDIKKTLDVGGNSILEMPSGTGKTVSLLSLTIAYQMHYPEHRKIIYCSRTMSEIEKALVELENLMDYRTKELGYQEDFRGLGLTSRKNLCLHPEVSKERKGTVVDEKCRRMTNGQAKRKLEEDPEANVELCEYHENLYNIEVEDYLPKGVFSFEKLLKYCEEKTLCPYFIVRRMISLCNIIIYSYHYLLDPKIAERVSNEVSKDSIVIFDEAHNIDNVCIESLSLDLTTDALRRATRGANALDERISEVRKVDSQKLQDEYEKLVQGLHSADILTDQEEPFVETPVLPQDLLTEAIPGNIRRAEHFVSFLKRLIEYLKTRMKVLHVISETPKSFLQHLKQLTFIERKPLRFCSERLSLLVRTLEVTEVEDFTALKDIATFATLISTYEEGFLLIIEPYEIENAAVPNPIMRFTCLDASIAIKPVFERFSSVIITSGTISPLDMYPRMLNFKTVLQKSYAMTLAKKSFLPMIITKGSDQVAISSRFEIRNDPSIVRNYGSMLVEFAKITPDGMVVFFPSYLYMESIVSMWQTMGILDEVWKHKLILVETPDAQETSLALETYRKACSNGRGAILLSVARGKVSEGIDFDHQYGRTVLMIGIPFQYTESRILKARLEFMRENYRIRENDFLSFDAMRHAAQCLGRVLRGKDDYGVMVLADRRFSRKRSQLPKWIAQGLSDADLNLSTDMAISNTKQFLRTMAQPTDPKDQEGVSVWSYEDLIKHQNSRKDQGGFIENENKEGEQDEDEDEDIEMQ | failed |
| MKGDRLADIRTIGVVVLYRPDSSVLDAIASYRHQVHELIVVDNSEEQDHKLHSRLRDRFGATIVGEGRNLGIAAALNRAAREALAEGFDLLLTMDQDSRAEPGMVEQMLACLGSDWRERVGLIAPFHLTGARPAPGGTTPCSDVMTPMTSGCLVNLAAFREVGPFRDDFFIDFVDNEYCLRLRKKGFQVVRANRALLHHRVGDLRRYGPFVATHHSPLRRYYKTRNRCAVFAEYLRDFPVHCLFDLVRLGKEVASILIFEREKTAKLRMMWRGFLDFRRGRFGPYGGLEHHHHHH | failed |
